# Changes are numbered by the printed parent chain.
# B1: CD22 antibody FC2-201 (antibody, V domains shown)
# VH: KVQLQQSGAGLVKPGASVKLSCKASGYTFTDSILHWLMQRSGQGLEWIGWFYPGSGSIKYNEKFKDKATLTADKSSSTVYMELSRLTSEDSAFYFCARHEDGYDGFAYWGQGTLVTVSA
# VL: ENVLTQSPAIMSASLGEKVTMSCRASSSVNYIFWYQQKSDASPKLWIYYTSNLAPGVPARFSGSGSGNSYSLTISSMEGEDAATYYCQQFTSSPFTFGSGTKLEIKR
# B2: CD22 antibody FC2-203 (antibody, V domains shown)
# VH: QVQLQQPGAELVRPGASVKLSCKASGYTFSSYWINWVKQRPGQGLEWIGNIYPSDSYTNYNQKFKDKATLTVDKSSSTAYMQLSSPTSEDSAVYYCTREGHYYGSFGAMDYWGQGTSVTVSS
# VL: DVQITQSPSYLAASPGETITINCRASKTISKYLAWYQEKPGKTNKLLIYSGSTLQSGIPSRFSGSGSGTDFTLTISSLEPEDFAMYYCQQHNEYPWTFGGGTKLEIKR
# B3: CD22 antibody FC2-117 (antibody, V domains shown)
# VH: DVQLQESGPGLVKPSQSLSLTCSVTGYSITSGYYWNWIRQFPGNKLEWMGYISYDGSNNYNPSLKNRISITRDTSKNQFFLKLNSVTTEDTATYYCTKGGYGYYFDYWGQGTTLTVSS
# VL: DIQMTQSPASLSASVGETVTITCRASGNIHNYLAWYQQKQGKSPQLLVYNAKTLADGVPSRFSGSGSGTQYSLKINSLQPEDFGSYYCQHFWSTPPTFGGGTKLEIKR
# B4: CD22 antibody FC2-153 (antibody, V domains shown)
# VH: QVQLQQSGAELMKPGASVKISCKATGYTFSSYWIEWVKQRPGHGLEWIGEILPGSGSTNYNEKFKGKATFTADTSSNTAYMQLSSLTSEDSAVYYCARWGQLGLFYAMDYWGQGTSVTVSS
# VL: DIQMTQSPASLSASVGETVTITCRASENIYSYLAWYQQKQGKSPQLLVYNAKTLAEGVPSRFSGSGSGTQFSLKINSLQPEDFGSYYCQHHYGSPLTFGAGTKLELKR
# B5: CD22 antibody FC2-070 (antibody, V domains shown)
# VH: QVQLQQPGAELVKPGTSVKLSCKASGYNFTSYWINWVKLRPGQGLEWIGDIYPGSGNTNYNEKFKSKATLTVDTSSTTAYMQLSSLASEDSALYYCARRGYLDYWGQGTTLTVSS
# VL: B3 VL with K74T, P96L, G100A, I106L
# B6: RFB-4 (antibody, V domains shown)
# VH: EVQLVESGGGLVKPGGSLKLSCAASGFAFSIYDMSWVRQTPEKRLEWVAYISSGGGTTYYPDTVKGRFTISRDNAKNTLYLQMSSLKSEDTAMYYCARHSGYGSSYGVLFAYWGQGTLVTVSA
# VL: DIQMTQTTSSLSASLGDRVTISCRASQDISNYLNWYQQKPDGTVKLLIYYTSILHSGVPSRFSGSGSGTDYSLTISNLEQEDFATYFCQQGNTLPWTFGGGTKLEIK
# Molecular target: T1, Human CD22 extracellular segment conjugated His label (human, UniProt P20273 20-687)
# Test: BLI (Fortebio)
row,Kd [nM],Binder
1,0.0722,B1
2,7.08,B2
3,2.73,B3
4,0.92,B4
5,0.569,B5

# Molecular target: K562-CD22 (UniProt P20273 20-847)
# Test: FACS binding
row,EC50 [nM],Binder
1,0.632,B6

# Molecular target: T1, Human CD22 extracellular segment …
# Test: ELISA
row,EC50 [nM],Binder
1,0.096,B1
2,0.457,B2
3,0.629,B3
4,0.145,B4
5,0.154,B5

# Reference: patent US20230331840A1 (published 2023)
